These results are taken from US20210079083A1 (INSTITUTE FOR BASIC SCIENCE, published 2021).

To fix the notation:
T1: Human Angiopoietin-2 full-length (hAng2) (human, UniProt O15123 19-496)
T1 construct: The cell assays used full-length hAng2 from R&D Systems; also called human Ang2; A2
T1 sequence: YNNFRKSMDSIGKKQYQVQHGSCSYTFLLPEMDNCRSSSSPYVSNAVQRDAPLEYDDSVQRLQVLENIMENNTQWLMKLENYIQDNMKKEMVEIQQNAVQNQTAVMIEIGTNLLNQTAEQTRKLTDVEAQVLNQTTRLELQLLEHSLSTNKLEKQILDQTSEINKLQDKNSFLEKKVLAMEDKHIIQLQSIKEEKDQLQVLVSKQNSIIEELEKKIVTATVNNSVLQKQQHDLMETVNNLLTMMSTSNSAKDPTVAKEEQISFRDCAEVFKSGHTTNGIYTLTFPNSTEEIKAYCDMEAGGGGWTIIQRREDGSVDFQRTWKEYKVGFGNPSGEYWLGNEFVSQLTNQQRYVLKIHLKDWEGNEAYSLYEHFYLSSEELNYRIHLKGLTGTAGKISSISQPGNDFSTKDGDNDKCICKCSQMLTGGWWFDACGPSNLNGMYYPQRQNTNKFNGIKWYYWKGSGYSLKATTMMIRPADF

T2: mouse Ang2 (mAng2) (mouse, UniProt O35608 19-496, limits assumed)
T2 construct: Coated on the ELISA plate; also called recombinant mAng2
T2 sequence (looked up): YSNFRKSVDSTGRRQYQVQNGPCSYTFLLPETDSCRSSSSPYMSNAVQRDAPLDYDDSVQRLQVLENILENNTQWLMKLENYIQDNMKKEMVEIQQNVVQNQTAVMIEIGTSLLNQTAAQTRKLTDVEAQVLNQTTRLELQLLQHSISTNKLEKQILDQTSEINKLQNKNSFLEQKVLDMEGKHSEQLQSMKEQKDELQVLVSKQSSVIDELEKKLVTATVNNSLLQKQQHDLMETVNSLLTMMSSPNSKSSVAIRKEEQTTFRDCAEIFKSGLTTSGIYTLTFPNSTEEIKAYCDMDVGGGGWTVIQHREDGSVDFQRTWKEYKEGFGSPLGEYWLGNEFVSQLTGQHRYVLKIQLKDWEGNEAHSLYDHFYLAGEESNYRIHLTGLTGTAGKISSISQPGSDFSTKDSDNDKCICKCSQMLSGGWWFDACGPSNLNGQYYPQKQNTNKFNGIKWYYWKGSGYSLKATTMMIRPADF

B1: humanized anti-Ang2 antibody 2C8H11 (antibody, V domains shown)
VH: QVQLVQSGAEVKKPGASVKVSCKASGYTFTSYWMHWVRQAPGQGLEWMGMIDPSDSETRLNQKFKDRVTMTRDTSTSTVYMELSSLRSEDTAVYYCARRFYYGSDWYFDVWGQGTLVTVSS
VL: DIQLTQSPSFLSASVGDRVTITCKASQDVGTAVAWYQQKPGKAPKLLIYWASTRHTGVPSRFSGSGSGTEFTLTISSLQPEDFATYYCQQYSSYPLTFGQGTKVEIK
notes: Full-length human IgG1
B2: humanized anti-Ang2 antibody 4B9H11 (antibody, V domains shown)
VH: QVQLVESGGGLVKPGGSLRLSCAASGFTFSDYYMYWIRQAPGKGLEWVSTISVGGSFTYYPDSVKGRFTISRDNAKNSLYLQMNSLRAEDTAVYYCARDWGLRPWFVYWGQGTLVTVSS
VL: DIQMTQSPSSLSASVGDRVTITCKASQDVSTAVAWYQQKPGKAPKLLIYWASTRHTGVPSRFSGSGSGTDFTLTISSLQPEDFATYYCQQHYSTPPTFGQGTKVEIK
notes: Full-length human IgG1
B3: 4B9H11G4 (human IgG4 class antibody of 4B9H11) (antibody, V domains shown)
VH: QVQLVESGGGLVKPGGSLRLSCAASGFTFSDYYMYWIRQAPGKGLEWVSTISVGGSFTYYPDSVKGRFTISRDNAKNSLYLQMNSLRAEDTAVYYCARDWGLRPWFVYWGQGTLVTVSS
VL: DIQMTQSPSSLSASVGDRVTITCKASQDVSTAVAWYQQKPGKAPKLLIYWASTRHTGVPSRFSGSGSGTDFTLTISSLQPEDFATYYCQQHYSTPPTFGQGTKVEIK
notes: The heavy chain constant region was replaced by an IgG4 class constant region; The sentence prints '4B9 heavy chain gene' where 4B9H11 is meant; also called 4B9H11-IgG4
B4: humanized anti-Ang2 antibody 4B9H21 (antibody, V domains shown)
VH: QVQLVESGGGLVKPGGSLRLSCAASGFTFSDYYMYWVRQAPGKGLEWVSTISVGGSFTYYPDSVKGRFTISRDNAKNSLYLQMNSLRAEDTAVYYCARDWGLRPWFVYWGQGTLVTVSS
VL: DIQMTQSPSSLSASVGDRVTITCKASQDVSTAVAWYQQKPGKAPKLLIYWASTRHTGVPSRFSGSGSGTDFTLTISSLQPEDFATYYCQQHYSTPPTFGQGTKVEIK
notes: Full-length human IgG1
B5: humanized anti-Ang2 antibody 4B9H31 (antibody, V domains shown)
VH: QVQLVESGGGLVKPGGSLRLSCAASGFTFSDYYMYWVRQAPGKGLEWVATISVGGSFTYYPDSVKGRFTISRDNAKNSLYLQMNSLRAEDTAVYYCARDWGLRPWFVYWGQGTLVTVSS
VL: DIQMTQSPSSLSASVGDRVTITCKASQDVSTAVAWYQQKPGKAPKLLIYWASTRHTGVPSRFSGSGSGTDFTLTISSLQPEDFATYYCQQHYSTPPTFGQGTKVEIK
notes: Full-length human IgG1
B6: humanized anti-Ang2 antibody 2C8H52 (antibody, V domains shown)
VH: QVQLVQSGAEVKKPGASVKVSCKASGYSFTSYWMHWVKQAPGQGLEWIGMIDPSDSETRLNQKFKDKASLTVDTSTSTVYMELSSLRSEDTAVYYCARRFYYGSDWYFDVWGQGTLVTVSS
VL: DIQLTQSPSFLSASVGDRVSITCKASQDVGTAVAWYQQKPGKAPKLLIYWASTRHTGVPDRFSGSGSGTEFTLTISSLQPEDFATYYCQQYSSYPLTFGQGTKVEIK
notes: Full-length human IgG1
B7: humanized anti-Ang2 antibody 2C8H53 (antibody, V domains shown)
VH: QVQLVQSGAEVKKPGASVKVSCKASGYSFTSYWMHWVKQAPGQGLEWIGMIDPSDSETRLNQKFKDKASLTVDTSTSTVYMELSSLRSEDTAVYYCARRFYYGSDWYFDVWGQGTLVTVSS
VL: DIQLTQSPSFLSASVGDRVSITCKASQDVGTAVAWYQQKPGKAPKLLIYWASTRHTGVPDRFSGSGSGTEFTLTISSLQPEDFADYFCQQYSSYPLTFGQGTKVEIK
notes: Full-length human IgG1
B8: mouse anti-Ang2 antibody 4E2 (antibody, V domains shown)
VH: EVQLQQSGPELEKPGASVKISCKASGYSFTGYNMNWVKQSNGKSLEWIGNIDPYYGGTSYNQKFKGKATLTVDKSSSTAYMQLKSLTSEDSAVYYCVRYGNYVDYWGQGTTLTVSS
VL: DIVMTQSHKFMSTSVGDRVSITCKASQDVSTAVAWYQQKPGQSPKLLIYWASTRHTGVPDRFTGSGSGTDYTLTISSVQAEDLALYYCQQHYNTPPTFGSGTKLEIK
notes: Mouse monoclonal antibody from a hybridoma, purified on Protein G
B9: mouse anti-Ang2 antibody 2F10 (antibody, V domains shown)
VH: QVQLVESGGGLVKPGGSLKLSCAASGFTFSDYYMYWIRQTPEKRLEWVATINDGGSYTYYPDSVKGRFTISRDNAKNNLYLQMSSLKSEDTAMYYCARDWGLRPWFVYWGQGTLVTVSA
VL: DIVMTQSHKFMSTSVGDRVSITCKASQDVSTAVAWYQQKPGQSPKLLIYWASTRHTGVPDRFTGSGSGTDYTLTISSVQAEDLALYYCQQHYTTPPTFGSGTKLEIK
notes: as for B8
B10: mouse anti-Ang2 antibody 4B9 (antibody, V domains shown)
VH: EVQLVESGGGLVKPGGSLKLSCAASGFTFSDYYMYWVRQTPEKRLEWVATISVGGSFTYYPDSVKGRFTISRDNAKNNLYLQMSSLKSEDTAMYYCARDWGLRPWFVYWGQGTLVTVSA
VL: DIVMTQSHKFMSTSVGDRVSITCKASQDVSTAVAWYQQKPGQSPKLLIYWASTRHTGVPDRFTGSGSGTDYTLTISSVQAEDLALYYCQQHYSTPPTFGSGTKLEIK
notes: Mouse monoclonal antibody from a hybridoma (KCLRF-BP-00418), purified on Protein G
B11: mouse anti-Ang2 antibody 2C8 (antibody, V domains shown)
VH: QVQLQQSGPQLVRPGASVKISCKASGYSFTSYWMHWVKQRPGQGLEWIGMIDPSDSETRLNQKFKDKASLTVDKSSSTAYMQLSSPTSGDSAVYYCARRFYYGSDWYFDVWGAGSTVTVSS
VL: DIVMTQSHKFMSTSVGDRVSITCKASQDVGTAVAWYQQKPGQSPKLLIYWASTRHTGVPDRFTGSGSGTDFTLTISNVQSEDLADYFCQQYSSYPLTFGSGTKLEIK

In one assay the target is T1, Human Angiopoietin-2 full-length (hAng2). Description: BLI (Octet), antibody fixed on AR2G sensor, hAng2 3.125-50 nM in solution, 1:1 global fit. As to the method:
(§1) The affinity of humanized anti-Ang2 antibody against hAng2 was measured using Octet system (ForteBio). Specifically, buffer and samples were measured in total 200 μl/well using Black 96-well plates (96 well F-type black plates, Greiner). […] After the hydration, humanized anti-Ang2 antibody was diluted in 10 mM sodium acetate, pH 6.0 buffer at a concentration of 10 μg/ml, fixed on AR2G biosensor, and blocked with 1M ethanolamine. The recombinant hAng2 was diluted to 50, 25, 12.5, 6.25, 3.125, and 0 nM with 1× kinetic buffer, and subjected to association for 300 sec and dissociation for 900 sec.
The affinities of humanized 2C8 antibodies to hAng2 were in Table 15.
In turn, B1 displayed a Kd of 0.212 nM, a koff of 1.4e-05 s⁻¹ and a kon of 66000 M⁻¹ s⁻¹.
For the molecule B2, the Kd amounted to 0.0171 nM, the koff was found to be 1.58e-06 s⁻¹ and the kon was 92900 M⁻¹ s⁻¹.
Molecule B3 returned a Kd of 0.08 nM, a koff of 3.46e-05 s⁻¹ and an on-rate constant (kon) of 432000 M⁻¹ s⁻¹.
As for B4, the affinity, expressed as Kd, was 0.121 nM; the koff came out at 8.94e-06 s⁻¹; the kon was found to be 73700 M⁻¹ s⁻¹.
Molecule B5 came in with a Kd of 0.167 nM, a koff of 1.56e-05 s⁻¹ and a kon of 93900 M⁻¹ s⁻¹.
The like results for B6 were, in that order, 0.243 nM, 1.99e-05 s⁻¹ and 81900 M⁻¹ s⁻¹.
On to B7, for which the Kd was found to be 0.384 nM, the koff was found to be 3.11e-05 s⁻¹ and the association rate constant (kon) is 80900 M⁻¹ s⁻¹.

For the next assay, the target named is T2, mouse Ang2 (mAng2). Briefly: ELISA, mAng2 coated at 20 ng per well, detection with anti-human IgG (Fab)-HRP. As to the method: FIG. 8. EC₅₀ values of anti-Ang2 antibodies against mouse Ang2 by ELISA. The binding affinities of humanized anti-Ang2 antibodies for mouse Ang2 (mAng2) were measured by analyzing EC₅₀ with ELISA. The recombinant mAng2 was coated and incubated with serially diluted anti-Ang2 antibodies, 4B9H11 and 2C8H11. Next, the plate was reacted with anti-human IgG (Fab)-HRP secondary antibody. The plate was treated with TMB solution and absorbance was measured at 450 nm. EC₅₀ value was analyzed using PerkinElmer's WorkOut 2.5 program.
The affinity of humanized antibodies for mouse Ang2 (mAng2) was analyzed by ELISA. Specifically, mAng2 was diluted in 30 μl of a coating buffer (0.1 M sodium carbonate buffer) at 20 ng per well in a half 96-well plate (Corning 3690) and incubated overnight at 4° C. After washing with TBS-T solution for 3 times, the well plate was blocked with 3% skim milk at room temperature for 1 hr and then washed again. 2C8H11 and 4B9H11 were serially diluted from […] to 300 ng/ml. After loading 30 μl of the diluted ant-Ang2 antibodies into wells, the well plate was incubated at room temperature for 2 hrs. […] After developing for 5 min, the plate was treated with 1N sulfuric acid to stop the reaction, and absorbance was measured at 450 nm. Based on the measured OD value, the EC₅₀ value was analyzed using PerkinElmer's WorkOut 2.5 program.
Molecule B1 came in with an EC50 of 97 µg/mL.
The molecule B2 registered an EC50 of 105 µg/mL.

The target of a further assay is T1, Human Angiopoietin-2 full-length (hAng2). Description: BLI (Octet), hAng2 fixed on AR2G sensor, antibody 3.125-50 nM in solution, 1:1 global fit. The method, then: as §1, with “of mouse monoclonal” for “of humanized anti-Ang2”, “hydration, hAng2” for “hydration, humanized anti-Ang2 antibody”, “The mouse monoclonal anti-Ang2 antibodies were” for “The recombinant hAng2 was”, “300 seconds” for “300 sec”, “900 seconds.” for “900 sec.”
On to B8, for which the Kd came out at 4.74 nM, the koff was found to be 0.000134 s⁻¹ and the on-rate (kon) was 28300 M⁻¹ s⁻¹.
For the molecule B9, the Kd was 0.138 nM, the koff worked out at 1.71e-05 s⁻¹ and the kon was 124000 M⁻¹ s⁻¹.
For B10 the same measures were 0.00368 nM, 5.04e-07 s⁻¹ and 137000 M⁻¹ s⁻¹.
For B11 the same measures were 0.0455 nM, 3.54e-06 s⁻¹ and 77800 M⁻¹ s⁻¹.
